Source: PMC6423188, “HYNIC and DOMA conjugated radiolabeled bombesin analogs as receptor-targeted probes for scintigraphic detection of breast tumor” (EJNMMI Research, 2019)

Tests used:
[1] = system: MDA-MB-231 tumor-bearing mice; test: In vivo biodistribution; set-up: species or system mouse; conditions: for Tumor uptake: MDA-MB-231 tumor; for Tumor uptake / Blood uptake / Heart uptake / Intestine uptake / Kidney uptake / Liver uptake / Lung uptake / Muscle uptake / Pancreas uptake / Spleen uptake / Stomach uptake / Urine + urinary bladder uptake: mean ± SD, n = 3
Protocol: All animal experiments were done according to the CSIR-IICB Animal Ethics Committee’s rules and regulation. Forty-eight hours before tumor cell implantation, an immunosuppressive drug (cyclosporine-A) was given intraperitoneal (i.p) at a concentration of 30 mg/kg/day. After that, MDA-MB-231 cells (5 × 10^6) 0.2 mL were implanted subcutaneously into the left flanks of the hind leg of BALB/c mice. Thereafter, the same dose of cyclosporine was given i.p. daily up to 2 weeks. Two weeks after inoculation of the tumor cells, when tumors reached ~ 0.5 cm in mean diameter, the tumor-bearing mice were used for biodistribution and imaging studies. Animals were monitored daily and their weights were recorded. Control group of mice received only 0.9 wt% saline. After cell implantation, the growth rate of the breast tumor followed a satisfactory pattern of spheroid shape and tumors are palpable within 2 to 4 weeks. MDA-MB-231 cell implanted mice tumor models were used for biodistribution and planar imaging studies of these radiolabeled new bombesin analogs.
In tissue biodistribution studies, tumor-bearing animals were divided into four groups and well hydrated for 1 h by intraperitoneal administration of saline (0.9%, 2 mL). Three animals per groups were used for biodistribution studies. After that, the radiolabeled new bombesin analogs (^99mTc-BN) were injected intravenously in each animal of each group consequently through the tail vein [24–27]. After 5, 30, 60, and 120 min intravenous administrations of radiolabeled analogs, the animals were sacrificed; blood, heart, lung, liver, kidney, stomach, intestine, spleen, pancreas, brain, muscle, and tumor were excised, weighed, and counted for radioactivity. The organ uptake was calculated as a percentage of the injected activity per gram of wet tissue (%IA/g). In order to evaluate whether binding of bombesin analogs to MDA-MB-231 cells in vivo is specific; blocking studies with ^99mTc-labeled bombesin analogs in tumor-bearing mice were carried out. Groups of three animals were injected 0.03 nmol of ^99mTc-labeled BN analogs (2 MBq) with 25 nmol of non-radiolabeled BN peptide. After 60 min and 120 min, mice were sacrificed and the organs were collected. Each organ was weighed and counted in a gamma counter along with activity standard and percentage of injected activity per gram (%IA/g) of tissue was calculated for each type of tissues. Counts were corrected for background radiation and physical decay of the radioactivity. The uptake was expressed in the percentage of injected activity per gram of each organ (%IA/g). Data were analyzed statistically by the t test, with the level of significance set at P < 0.05.

[2] = physchem; type: physicochemical; conditions: pH 7.4
Protocol: Lipophilicity of the HPLC-purified radiopeptide analogs was determined through octanol/water partition coefficients, determined at pH 7.4 by measuring the distribution of the HPLC purified radiolabeled peptides in 1-octanol and PBS. Then, 50 μL HPLC purified ^99mTc-BN1/^99mTc-BN2/^99mTc-BN3/^99mTc-BN4/^99mTc-BNS with 100 μCi of radiolabeled compound in PBS was added to a to a centrifuge tube containing 1 mL n-octanol and 1 mL PBS (0.025 M, pH 7.4). The tube was vortexed at room temperature for 2 min and they are centrifuged at 5000 rpm for 5 min to ensure complete separation of layers. Further, 100 μL of each phase was transferred into a separate pre-weighed vial and measured in the well γ-counter. The ratio of octanol layer counts to aqueous layer counts was expressed as the distribution coefficient (D, the appropriate descriptor for ionizable compounds) and logD was used for determination of lipophilicity. Counts per unit weight of the sample were calculated, and logD value as calculated as follows:
log10D = log10 [(cpm in octanol – cpm in background) / (cpm in buffer – cpm in background)]

[3] = in vitro; type: in vitro ADME; conditions: rat
Protocol: An aliquot (100 μL) of ^99mTc-BN1/^99mTc-BN2/^99mTc-BN3/^99mTc-BN4/^99mTc-BNS was added to 1 mL of freshly collected rat serum in centrifuge tube. The mixture was then incubated at 37 °C for 1 h; the serum protein was precipitated by adding 1 mL trichloroacetic acid (10%, V/V). The supernatant and precipitate were separated by centrifugation at 3000 rpm for 5 min. Radioactivities of both the phases were measured separately. The above experimental procedure was repeated three times. The percentage of protein binding was determined as: Plasma protein binding % = (precipitate counts (CPM) / [precipitate counts (CPM) + plasma counts (CPM)]) × 100%.

[4] = 60 min p.i., blocked with excess non-radiolabeled BN peptide

Substance: ^99mTc-HYNIC-Asp-Asn-[Lys^11CHAla^13Nle^14]-BN(7-14)NH2 [99mTc-BN3]
- tumor/blood ratio ([1]; 5 min p.i.): 2.37
- tumor/kidney ratio ([1]; 5 min p.i.): 0.64
- tumor/muscle ratio ([1]; 5 min p.i.): 2.56
- Tumor uptake ([1]; 5 min p.i., i.v.): 1.28 ± 0.01 %IA/g
- Blood uptake ([1]; 5 min p.i., i.v.): 0.54 ± 0.01 %IA/g
- Heart uptake ([1]; 5 min p.i., i.v.): 0.91 ± 0.03 %IA/g
- Intestine uptake ([1]; 5 min p.i., i.v.): 1.21 ± 0.06 %IA/g
- Kidney uptake ([1]; 5 min p.i., i.v.): 1.97 ± 0.11 %IA/g
- Liver uptake ([1]; 5 min p.i., i.v.): 0.44 ± 0.03 %IA/g
- Lung uptake ([1]; 5 min p.i., i.v.): 0.87 ± 0.14 %IA/g
- Muscle uptake ([1]; 5 min p.i., i.v.): 0.50 ± 0.01 %IA/g
- Pancreas uptake ([1]; 5 min p.i., i.v.): 2.78 ± 0.11 %IA/g
- Spleen uptake ([1]; 5 min p.i., i.v.): 0.54 ± 0.04 %IA/g
- Stomach uptake ([1]; 5 min p.i., i.v.): 0.52 ± 0.02 %IA/g
- Urine + urinary bladder uptake ([1]; 5 min p.i., i.v.): 0.61 ± 0.04 %IA/g
- tumor/blood ratio ([1]; 30 min p.i.): 3.47
- tumor/kidney ratio ([1]; 30 min p.i.): 0.76
- tumor/muscle ratio ([1]; 30 min p.i.): 9.83
- Tumor uptake ([1]; 30 min p.i., i.v.): 2.95 ± 0.01 %IA/g
- Blood uptake ([1]; 30 min p.i., i.v.): 0.85 ± 0.01 %IA/g
- Heart uptake ([1]; 30 min p.i., i.v.): 0.77 ± 0.02 %IA/g
- Intestine uptake ([1]; 30 min p.i., i.v.): 1.46 ± 0.05 %IA/g
- Kidney uptake ([1]; 30 min p.i., i.v.): 3.88 ± 0.21 %IA/g
- Liver uptake ([1]; 30 min p.i., i.v.): 0.23 ± 0.13 %IA/g
- Lung uptake ([1]; 30 min p.i., i.v.): 0.62 ± 0.03 %IA/g
- Muscle uptake ([1]; 30 min p.i., i.v.): 0.30 ± 0.02 %IA/g
- Pancreas uptake ([1]; 30 min p.i., i.v.): 3.59 ± 0.03 %IA/g
- Spleen uptake ([1]; 30 min p.i., i.v.): 0.46 ± 0.01 %IA/g
- Stomach uptake ([1]; 30 min p.i., i.v.): 0.74 ± 0.04 %IA/g
- Urine + urinary bladder uptake ([1]; 30 min p.i., i.v.): 2.80 ± 0.01 %IA/g
- tumor/blood ratio ([1]; 60 min p.i.): 5.71
- tumor/kidney ratio ([1]; 60 min p.i.): 0.85
- tumor/muscle ratio ([1]; 60 min p.i.): 10.38
- Tumor uptake [1, 4]: 0.54 ± 0.20 %IA/g
- Blood uptake [1, 4]: 0.30 ± 0.01 %IA/g
- Heart uptake [1, 4]: 0.29 ± 0.11 %IA/g
- Intestine uptake [1, 4]: 1.36 ± 0.23 %IA/g
- Kidney uptake [1, 4]: 3.18 ± 0.20 %IA/g
- Liver uptake [1, 4]: 0.20 ± 0.03 %IA/g
- Lung uptake [1, 4]: 0.52 ± 0.02 %IA/g
- Muscle uptake [1, 4]: 0.16 ± 0.21 %IA/g
- Pancreas uptake [1, 4]: 0.92 ± 0.02 %IA/g
- Spleen uptake [1, 4]: 0.33 ± 0.03 %IA/g
- Stomach uptake [1, 4]: 0.37 ± 0.10 %IA/g
- Urine + urinary bladder uptake [1, 4]: 3.52 ± 0.07 %IA/g
- Tumor uptake ([1]; 60 min p.i., i.v.): 2.70 ± 0.02 %IA/g
- Blood uptake ([1]; 60 min p.i., i.v.): 0.47 ± 0.04 %IA/g
- Heart uptake ([1]; 60 min p.i., i.v.): 0.35 ± 0.02 %IA/g
- Intestine uptake ([1]; 60 min p.i., i.v.): 1.85 ± 0.21 %IA/g
- Kidney uptake ([1]; 60 min p.i., i.v.): 3.17 ± 0.17 %IA/g
- Liver uptake ([1]; 60 min p.i., i.v.): 0.18 ± 0.12 %IA/g
- Lung uptake ([1]; 60 min p.i., i.v.): 0.50 ± 0.02 %IA/g
- Muscle uptake ([1]; 60 min p.i., i.v.): 0.26 ± 0.03 %IA/g
- Pancreas uptake ([1]; 60 min p.i., i.v.): 2.11 ± 0.06 %IA/g
- Spleen uptake ([1]; 60 min p.i., i.v.): 0.30 ± 0.01 %IA/g
- Stomach uptake ([1]; 60 min p.i., i.v.): 0.66 ± 0.02 %IA/g
- Urine + urinary bladder uptake ([1]; 60 min p.i., i.v.): 3.75 ± 0.11 %IA/g
- tumor/blood ratio ([1]; 120 min p.i.): 7.04
- tumor/kidney ratio ([1]; 120 min p.i.): 1.20
- tumor/muscle ratio ([1]; 120 min p.i.): 8.89
- Tumor uptake ([1]; 120 min p.i., i.v.): 1.69 ± 0.03 %IA/g
- Blood uptake ([1]; 120 min p.i., i.v.): 0.24 ± 0.01 %IA/g
- Heart uptake ([1]; 120 min p.i., i.v.): 0.15 ± 0.04 %IA/g
- Intestine uptake ([1]; 120 min p.i., i.v.): 0.70 ± 0.05 %IA/g
- Kidney uptake ([1]; 120 min p.i., i.v.): 1.40 ± 0.13 %IA/g
- Liver uptake ([1]; 120 min p.i., i.v.): 0.11 ± 0.03 %IA/g
- Lung uptake ([1]; 120 min p.i., i.v.): 0.35 ± 0.11 %IA/g
- Muscle uptake ([1]; 120 min p.i., i.v.): 0.19 ± 0.02 %IA/g
- Pancreas uptake ([1]; 120 min p.i., i.v.): 1.22 ± 0.04 %IA/g
- Spleen uptake ([1]; 120 min p.i., i.v.): 0.12 ± 0.02 %IA/g
- Stomach uptake ([1]; 120 min p.i., i.v.): 0.25 ± 0.01 %IA/g
- Urine + urinary bladder uptake ([1]; 120 min p.i., i.v.): 3.91 ± 0.22 %IA/g
- logD [2]: − 2.21 ± 0.13
- Percentage of plasma protein binding [3]: 26.00%
